In patent publication US20210268016A1 one finds IC50 data, which are given here for 1 substance.

The target of this assay is recombinant full-length human PrP^C (AA23-231) (human) (UniProt P04156).

Usually IC50 stands for the concentration that gives 50% inhibition. On to “Poly-d-glutamic acid sodium salt (peptide)”, for which the IC50 is greater than 1000 nM.
